The record followed here is patent US20220090005A1, “Supplemented Serum-Containing Culture Medium for Enhanced Arpe-19 Growth and Human Cytomegalovirus Vaccine Production” (priority 2019, published 2022).

This assay relates to ARPE-19 cells. The experiment in a line: Screening of individual supplements on ARPE-19 cell growth, 96-well plate, Hoechst nuclear stain. It is filed as cell-based, human. The conditions noted are these: components with p-value of <0.05; DMEM/F12 2% FBS, days 2-8 post plant, FIG. 1.

B1: EGF: Epidermal Growth Factor, growth factor supplement (protein, UniProt P01133 23-1207, looked up)
Pro-epidermal growth factor: PQHWSCPEGTLAGNGNSTCVGPAPFLIFSHGNSIFRIDTEGTNYEQLVVDAGVSVIMDFHYNEKRIYWVDLERQLLQRVFLNGSRQERVCNIEKNVSGMAINWINEEVIWSNQQEGIITVTDMKGNNSHILLSALKYPANVAVDPVERFIFWSSEVAGSLYRADLDGVGVKALLETSEKITAVSLDVLDKRLFWIQYNREGSNSLICSCDYDGGSVHISKHPTQHNLFAMSLFGDRIFYSTWKMKTIWIANKHTGKDMVRINLHSSFVPLGELKVVHPLAQPKAEDDTWEPEQKLCKLRKGNCSSTVCGQDLQSHLCMCAEGYALSRDRKYCEDVNECAFWNHGCTLGCKNTPGSYYCTCPVGFVLLPDGKRCHQLVSCPRNVSECSHDCVLTSEGPLCFCPEGSVLERDGKTCSGCSSPDNGGCSQLCVPLSPVSWECDCFPGYDLQLDEKSCAASGPQPFLLFANSQDIRHMHFDGTDYGTLLSQQMGMVYALDHDPVENKIYFAHTALKWIERANMDGSQRERLIEEGVDVPEGLAVDWIGRRFYWTDRGKSLIGRSDLNGKRSKIITKENISQPRGIAVHPMAKRLFWTDTGINPRIESSSLQGLGRLVIASSDLIWPSGITIDFLTDKLYWCDAKQSVIEMANLDGSKRRRLTQNDVGHPFAVAVFEDYVWFSDWAMPSVMRVNKRTGKDRVRLQGSMLKPSSLVVVHPLAKPGADPCLYQNGGCEHICKKRLGTAWCSCREGFMKASDGKTCLALDGHQLLAGGEVDLKNQVTPLDILSKTRVSEDNITESQHMLVAEIMVSDQDDCAPVGCSMYARCISEGEDATCQCLKGFAGDGKLCSDIDECEMGVPVCPPASSKCINTEGGYVCRCSEGYQGDGIHCLDIDECQLGEHSCGENASCTNTEGGYTCMCAGRLSEPGLICPDSTPPPHLREDDHHYSVRNSDSECPLSHDGYCLHDGVCMYIEALDKYACNCVVGYIGERCQYRDLKWWELRHAGHGQQQKVIVVAVCVVVLVMLLLLSLWGAHYYRTQKLLSKNPKNPYEESSRDVRSRRPADTEDGMSSCPQPWFVVIKEHQDLKNGGQPVAGEDGQAADGSMQPTSWRQEPQLCGMGTEQGCWIPVSSDKGSCPQVMERSFHMPSYGTQTLEGGVEKPHSLLSANPLWQQRALDPPHQMELTQ
modifications: Pro-epidermal growth factor
notes: Epidermal Growth Factor, growth factor supplement
As to B1, the “effect on cell growth” value is on record as “positive effect on cell growth”.
